Laboratory results: patent publication US20140287507A1

Biological target: integrin β1 (receptor subunit on the seeded cells, blocked with anti-β1 monoclonal antibody) (hamster (baby hamster kidney cells))
Test: cell-based or functional assay

“TMV-RGD1 (Tobacco mosaic virus particle whose coat protein carries the insert GRGDSPG extended after T159) (from UniProt P69687 2-159)” gave a cell attachment on virus coated plate after blocking the cells with integrin specific monoclonal antibody (% drop in attachment) of 25.
